The assay concerns the target CCR5 chemokine receptor (human) (UniProt P51681). As to the kind of experiment: cross-linking.

Chain of CCR5 chemokine receptor, P51681 1-352 (receptor; other documents disagree on this pair) (P51681 whole entry): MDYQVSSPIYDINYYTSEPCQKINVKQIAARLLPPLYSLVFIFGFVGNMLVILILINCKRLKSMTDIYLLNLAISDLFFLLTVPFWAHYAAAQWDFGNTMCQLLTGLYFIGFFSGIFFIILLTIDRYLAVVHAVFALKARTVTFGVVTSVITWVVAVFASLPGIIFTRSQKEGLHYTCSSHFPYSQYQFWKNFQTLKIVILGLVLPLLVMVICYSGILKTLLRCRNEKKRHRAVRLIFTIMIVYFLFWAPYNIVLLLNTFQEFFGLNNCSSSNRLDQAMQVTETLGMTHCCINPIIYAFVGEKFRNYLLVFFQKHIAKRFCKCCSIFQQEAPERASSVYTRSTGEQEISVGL

Broadly, the stoichiometry N is a count of units in the complex or per binding partner. “CCR5 chemokine receptor, P51681 1-352 (receptor; other documents disagree on this pair)” displayed a stoichiometry N of 2.

These data come from paper PMC2132943.
